Experiment [1] concerns the target Human PD-1/PDCD1 Protein (PD-1) (human, UniProt Q15116 25-167, limits assumed). Put plainly: SPR, Biacore 8K; PD-1 captured by anti-His antibody, antibody in flow. As for the experimental part: The binding affinity of each antibody to human PD-1 was measured with Biacore 8K (Cytiva). Briefly, anti-His Tag antibody was immobilized by amine coupling using Amine Coupling Kit and His Capture Kit, onto 8 channels of a sensor chip (provided with 16 flow cells; one channel consisting of two flow cells) which had carboxymethyl dextran immobilized on a gold film. The immobilization was performed by feeding an activation solution (NHS and EDC mixed in equal amounts) at a flow rate of 10 μl/min for 7 minutes, an immobilization solution at a flow rate of 5 μl/min for 7 minutes, and 1 M ethanolamine hydrochloride-NaOH (pH 8.5) at a flow rate of 10 μl/min for 7 minutes. The buffer used at the time of immobilization was 1×HBS-EP+ Buffer. After the immobilization and before applying a sample, Human PD-1/PDCD1 Protein (PD-1) adjusted to 1 μg/ml with 1×HBS-EP+ Buffer was fed to one of the two flow cells of each channel in an amount of 20 μl at a flow rate of 10 μl/min to thereby capture PD-1 on the sensor chip. As regards the other flow cell, 1×HBS-EP+ Buffer was fed in the same manner to prepare a control flow cell. Each antibody was adjusted to 16 nM with 1×HBS-EP+ Buffer, and then subjected to 2-fold 7-step serial dilution using 1×HBS-EP+ Buffer. The resultant sample solution (30 μl) was fed to each flow cell at a flow rate of 10 μl/min and the response was measured. After subtracting the response of control flow cell from the response of the flow cell which was allowed to capture the ligand, KD value was calculated by curve fitting using Biacore 8K Evaluation Software.

In experiment [2] the target is T1, human PD-1 (wild-type), expressed on cells (human, UniProt Q15116 25-288). The experiment in a line: cell-based or functional assay.
For experiment [3], the target named is T1, human PD-1 (wild-type), expressed on …. Put plainly: cell-based or functional assay. This is another data set of the same source.
Experiment [4] shares this target. The experiment in a line: cell-based or functional assay. This is another data set of the same source.

Where two headings read alike, the source gives them in different places. Bounds are passed on as bounds.

T1 sequence (Q15116 25-288 limits assumed): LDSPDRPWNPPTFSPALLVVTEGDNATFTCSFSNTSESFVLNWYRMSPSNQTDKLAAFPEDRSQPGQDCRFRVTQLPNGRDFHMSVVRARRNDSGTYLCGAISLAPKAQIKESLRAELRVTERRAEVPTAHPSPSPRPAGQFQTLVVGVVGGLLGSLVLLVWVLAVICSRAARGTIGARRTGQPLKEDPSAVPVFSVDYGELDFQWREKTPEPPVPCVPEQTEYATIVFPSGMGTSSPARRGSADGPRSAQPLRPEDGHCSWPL
Sequence of Human PD-1/PDCD1 Protein (PD-1) (Q15116 25-167 limits assumed): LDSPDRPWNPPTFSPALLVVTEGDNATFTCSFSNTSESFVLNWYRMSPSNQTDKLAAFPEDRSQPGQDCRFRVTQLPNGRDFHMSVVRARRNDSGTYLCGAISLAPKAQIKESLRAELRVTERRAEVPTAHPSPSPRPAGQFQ

B1: HM242-C1 (antibody, human IgG1, V domains shown)
VH: QVQLVQSGPEVKKPGASVKVVCKASGYTFTSYYIQWVKQRPGQGLEWIGWIYPGDGTTKYNEKFKGRVTMTIDKSTRTAYMELRSLRSDDTAVYYCASYYGSYFDYWGQGTLVTVSS
VL: DIQMTQTTSSLSASVGDRVTITCRASQDISNYLNWYQQKPDGTVTLLIYYTSKLHSGVPSRFSGSGSGTDYTLTISSLEQKDFATYYCQQSSTLPFTFGQGTKLEIK
notes: also called humanized HM242, VH ver.C / VL ver.1
The Kd is the equilibrium constant for the complex coming apart. Read a high Kd as lower affinity. B1 registered a Kd in experiment [1] of under 0.0179 nM. Besides, the “Cell-cell contact assay” value in experiment [2] came out at 19 ng/mL.

B2: HM242-A3 (antibody, human IgG1, V domains shown)
VH: QVQLVQSGPELVKPGASVKVVCKASGYTFTSYYIQWVKQRPGQGLEWIGWIYPGDGTTKYNEKFKGKTTLTIDKSTRTAYMELRSLRSDDTAVYYCASYYGSYFDYWGQGTLVTVSS
VL: DIQMTQSPSSLSASVGDRVTITCRASQDISNYLNWYQQKPGKAPKLLIYYTSKLHSGVPSRFSGSGSGTDYTLTISSLQPEDFATYYCQQSSTLPFTFGQGTKLEIK
notes: also called humanized HM242, VH ver.A / VL ver.3
Consider B2, for which, in experiment [1], the Kd is under 0.0217 nM. The “Cell-cell contact assay” value in experiment [2] was 18.8 ng/mL.

B3: HM242-B3 (antibody, human IgG1, V domains shown)
VH: QVQLVQSGPEVKKPGASVKVVCKASGYTFTSYYIQWVRQVPGQGLEWMGWIYPGDGTTKYNEKFKGKTTLTIDKSTRTAYMELRSLRSDDTAVYYCASYYGSYFDYWGQGTLVTVSS
VL: DIQMTQSPSSLSASVGDRVTITCRASQDISNYLNWYQQKPGKAPKLLIYYTSKLHSGVPSRFSGSGSGTDYTLTISSLQPEDFATYYCQQSSTLPFTFGQGTKLEIK
notes: also called humanized HM242, VH ver.B / VL ver.3
On to B3, for which the Kd in experiment [1] is under 0.0307 nM. For the same molecule, the “Cell-cell contact assay” value in experiment [2] is 20.8 ng/mL.

B4: HM242-A1 (antibody, human IgG1, V domains shown)
VH: QVQLVQSGPELVKPGASVKVVCKASGYTFTSYYIQWVKQRPGQGLEWIGWIYPGDGTTKYNEKFKGKTTLTIDKSTRTAYMELRSLRSDDTAVYYCASYYGSYFDYWGQGTLVTVSS
VL: DIQMTQTTSSLSASVGDRVTITCRASQDISNYLNWYQQKPDGTVTLLIYYTSKLHSGVPSRFSGSGSGTDYTLTISSLEQKDFATYYCQQSSTLPFTFGQGTKLEIK
notes: also called humanized HM242, VH ver.A / VL ver.1
In turn, B4 had a Kd in experiment [1] of under 0.0356 nM. Further, the “Cell-cell contact assay” value in experiment [2] worked out at 13.1 ng/mL.

B5: HM242-A2 (antibody, human IgG1, V domains shown)
VH: QVQLVQSGPELVKPGASVKVVCKASGYTFTSYYIQWVKQRPGQGLEWIGWIYPGDGTTKYNEKFKGKTTLTIDKSTRTAYMELRSLRSDDTAVYYCASYYGSYFDYWGQGTLVTVSS
VL: DIQMTQSPSSLSASVGDRVTITCRASQDISNYLNWYQQKPDGTVTLLIYYTSKLHSGVPSRFSGSGSGTDYTLTISSLQPEDFATYYCQQSSTLPFTFGQGTKLEIK
notes: also called humanized HM242, VH ver.A / VL ver.2
As to B5, the Kd in experiment [1] is under 0.0408 nM. Besides, the “Cell-cell contact assay” value in experiment [2] is 16.7 ng/mL.

B6: HM242-B1 (antibody, human IgG1, V domains shown)
VH: QVQLVQSGPEVKKPGASVKVVCKASGYTFTSYYIQWVRQVPGQGLEWMGWIYPGDGTTKYNEKFKGKTTLTIDKSTRTAYMELRSLRSDDTAVYYCASYYGSYFDYWGQGTLVTVSS
VL: DIQMTQTTSSLSASVGDRVTITCRASQDISNYLNWYQQKPDGTVTLLIYYTSKLHSGVPSRFSGSGSGTDYTLTISSLEQKDFATYYCQQSSTLPFTFGQGTKLEIK
notes: also called humanized HM242, VH ver.B / VL ver.1
On to B6, for which the Kd in experiment [1] was under 0.0448 nM. For the same molecule, the “Cell-cell contact assay” value in experiment [2] amounted to 7.15 ng/mL.

B7: HM242-C2 (antibody, human IgG1, V domains shown)
VH: QVQLVQSGPEVKKPGASVKVVCKASGYTFTSYYIQWVKQRPGQGLEWIGWIYPGDGTTKYNEKFKGRVTMTIDKSTRTAYMELRSLRSDDTAVYYCASYYGSYFDYWGQGTLVTVSS
VL: DIQMTQSPSSLSASVGDRVTITCRASQDISNYLNWYQQKPDGTVTLLIYYTSKLHSGVPSRFSGSGSGTDYTLTISSLQPEDFATYYCQQSSTLPFTFGQGTKLEIK
notes: also called humanized HM242, VH ver.C / VL ver.2
On to B7, for which the dissociation constant Kd in experiment [1] is under 0.0211 nM. In addition, the “Cell-cell contact assay” value in experiment [2] is 18.1 ng/mL.

B8: HM242-D1 (antibody, human IgG1, V domains shown)
VH: QVQLVQSGPEVKKPGASVKVVCKASGYTFTSYYIQWVRQVPGQGLEWMGWIYPGDGTTKYNEKFKGRVTMTIDTSTSTAYMELRSLRSDDTAVYYCASYYGSYFDYWGQGTLVTVSS
VL: DIQMTQTTSSLSASVGDRVTITCRASQDISNYLNWYQQKPDGTVTLLIYYTSKLHSGVPSRFSGSGSGTDYTLTISSLEQKDFATYYCQQSSTLPFTFGQGTKLEIK
notes: also called humanized HM242, VH ver.D / VL ver.1
On to B8, for which the affinity in experiment [1], expressed as Kd, was 0.103 nM. In experiment [2], the “Cell-cell contact assay” value was 24.8 ng/mL.

B9: HM268-M8 (antibody, human IgG1, V domains shown)
VH: QVQLVQSGPEVKKPGASVKVVCKASGYTFTSYYIQWVRQVPGQGLEWMGWIYFGDASTKYNEKFKGRVTMTADTSTSTAYMELRSLRSDDTAVYYCASYYGSYFDYWGQGTTVTVSS
VL: DIQMTQSPSSLSASVGDRVTITCRASQDISNYLNWYQQKPDGTVKLLIYSTSRLHSGVPSRFSGSGSGTDYTLTISSLQPEDFATYYCQQGSTLPFTFGQGTKLEIK
notes: also called humanized HM268, VH ver.M / VL ver.8
B9 had a Kd in experiment [1] of 0.00359 nM. Besides, in experiment [3], the “Cell-cell contact assay” value was 75.8 ng/mL.

B10: HM242-B2 (antibody, human IgG1, V domains shown)
VH: QVQLVQSGPEVKKPGASVKVVCKASGYTFTSYYIQWVRQVPGQGLEWMGWIYPGDGTTKYNEKFKGKTTLTIDKSTRTAYMELRSLRSDDTAVYYCASYYGSYFDYWGQGTLVTVSS
VL: DIQMTQSPSSLSASVGDRVTITCRASQDISNYLNWYQQKPDGTVTLLIYYTSKLHSGVPSRFSGSGSGTDYTLTISSLQPEDFATYYCQQSSTLPFTFGQGTKLEIK
notes: also called humanized HM242, VH ver.B / VL ver.2
Regarding B10, in experiment [1], the Kd is under 0.0315 nM. Also, the “Cell-cell contact assay” value in experiment [2] is 8.83 ng/mL.

B11: humanized HM242-C3-IgG1-K322A (antibody, V domains shown)
VH: QVQLVQSGPEVKKPGASVKVVCKASGYTFTSYYIQWVKQRPGQGLEWIGWIYPGDGTTKYNEKFKGRVTMTIDKSTRTAYMELRSLRSDDTAVYYCASYYGSYFDYWGQGTLVTVSS
VL: DIQMTQSPSSLSASVGDRVTITCRASQDISNYLNWYQQKPGKAPKLLIYYTSKLHSGVPSRFSGSGSGTDYTLTISSLQPEDFATYYCQQSSTLPFTFGQGTKLEIKR
Molecule B11 gave an equilibrium dissociation constant (Kd) in experiment [1] of under 0.0186 nM. Besides, in experiment [2], the “Cell-cell contact assay” value amounted to 23.7 ng/mL.

B12: HM268-J7 (antibody, human IgG1, V domains shown)
VH: QVQLVQSGPEVKKPGASVKVVCKTSGYTFTSYYIQWVRQVPGQGLEWMGWIYFGDASTKYNEKFKGKTTLTADKSTSTAYMELRSLRSDDTAVYYCASYYGSYFDYWGQGTTVTVSS
VL: DIQMTQNTSSLSASVGDRVTITCRASQDISNYLNWYQQKPDGTVKLLIYSTSRLHSGVPSRFSGSGSGTDYTLTISSLEQEDFATYYCQQGSTLPFTFGQGTKLEIK
notes: also called humanized HM268, VH ver.J / VL ver.7
The molecule B12 returned a Kd in experiment [1] of 0.00482 nM. Moreover, the “Cell-cell contact assay” value in experiment [3] came out at 70.9 ng/mL.

B13: HM242-D2 (antibody, human IgG1, V domains shown)
VH: QVQLVQSGPEVKKPGASVKVVCKASGYTFTSYYIQWVRQVPGQGLEWMGWIYPGDGTTKYNEKFKGRVTMTIDTSTSTAYMELRSLRSDDTAVYYCASYYGSYFDYWGQGTLVTVSS
VL: DIQMTQSPSSLSASVGDRVTITCRASQDISNYLNWYQQKPDGTVTLLIYYTSKLHSGVPSRFSGSGSGTDYTLTISSLQPEDFATYYCQQSSTLPFTFGQGTKLEIK
notes: also called humanized HM242, VH ver.D / VL ver.2
Consider B13, for which, in experiment [1], the Kd is under 0.0603 nM. The “Cell-cell contact assay” value in experiment [2] was 33.3 ng/mL.

B14: humanized HM242-D3-IgG1-K322A (antibody, V domains shown)
VH: QVQLVQSGPEVKKPGASVKVVCKASGYTFTSYYIQWVRQVPGQGLEWMGWIYPGDGTTKYNEKFKGRVTMTIDTSTSTAYMELRSLRSDDTAVYYCASYYGSYFDYWGQGTLVTVSS
VL: DIQMTQSPSSLSASVGDRVTITCRASQDISNYLNWYQQKPGKAPKLLIYYTSKLHSGVPSRFSGSGSGTDYTLTISSLQPEDFATYYCQQSSTLPFTFGQGTKLEIKR
In experiment [1], B14 had a Kd of under 0.0492 nM. Further, the “Cell-cell contact assay” value in experiment [2] came to 31.5 ng/mL.

B15: humanized HM297-H5-IgG1-K322A (antibody, V domains shown)
VH: QVQLVQSGPEVKKPGASVKIPCKASGYTFTDYNVDWVRQVPGQGLEWMGDIDPNNGGTIYNQKFKDRVTMTVDKSTRTAYMELRSLRSDDTAVYYCARWRGAMDYWGQGTLVTVSS
VL: DIQMTQSPSSLSASVGDRVTITCRASQDIDNYLKWYQQKPDGTVKLLIYDTSRLHSGVPSRFSGSGSGTDYTLTISSLKQEDFATYYCQQGYTLPWTFGQGTKLEIKR
With B15, the Kd in experiment [1] was 0.563 nM. Moreover, in experiment [4], the “Cell-cell contact assay” value worked out at 96.4 ng/mL.

B16: HM297-I6 (antibody, human IgG1, V domains shown)
VH: QVQLVQSGPEVKKPGASVKVVCKASGYTFTDYNVDWVRQVPGQGLEWMGDIDPNNGGTIYNQKFKDRVTMTVDTSTRTAYMELRSLRSDDTAVYYCARWRGAMDYWGQGTLVTVSS
VL: DIQMTQSPSSLSASVGDRVTITCRASQDIDNYLKWYQQKPGKAPKLLIYDTSRLHSGVPSRFSGSGSGTDYTLTISSLQPEDFATYYCQQGYTLPWTFGQGTKLEIK
notes: also called humanized HM297, VH ver.I / VL ver.6
In experiment [1], B16 registered a Kd of 3.48 nM. In experiment [4], the “Cell-cell contact assay” value stood at 137 ng/mL.

B17: chimeric HM242-IgG1-K322A (antibody)
heavy: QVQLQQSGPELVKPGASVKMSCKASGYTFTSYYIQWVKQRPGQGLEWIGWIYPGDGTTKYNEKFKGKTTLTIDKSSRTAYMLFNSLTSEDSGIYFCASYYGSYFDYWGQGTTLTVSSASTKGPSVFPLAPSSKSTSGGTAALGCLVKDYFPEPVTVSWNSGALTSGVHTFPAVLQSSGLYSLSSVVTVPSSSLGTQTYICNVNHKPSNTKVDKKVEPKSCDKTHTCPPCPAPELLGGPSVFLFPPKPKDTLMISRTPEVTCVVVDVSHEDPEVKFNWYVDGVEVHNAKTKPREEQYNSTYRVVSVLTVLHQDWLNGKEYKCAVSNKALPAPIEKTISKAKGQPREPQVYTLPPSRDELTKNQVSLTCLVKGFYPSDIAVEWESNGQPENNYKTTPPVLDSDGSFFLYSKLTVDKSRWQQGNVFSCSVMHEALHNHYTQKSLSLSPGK
light: DIQMTQTTSSLSASLGDRVTISCRASQDISNYLNWYQQKPDGTVTLLIYYTSKLHSGVPSRFSGSGSGTDYSLTITNLEQKDFATYFCQQSSTLPFTFGGGTKLEIKRTVAAPSVFIFPPSDEQLKSGTASVVCLLNNFYPREAKVQWKVDNALQSGNSQESVTEQDSKDSTYSLSSTLTLSKADYEKHKVYACEVTHQGLSSPVTKSFNRGEC
notes: Mouse Fab region with the Fc region of human IgG1-K322A
Turning to B17, in experiment [1], the dissociation constant Kd was under 0.051 nM. Further, the “Cell-cell contact assay” value in experiment [2] was determined as 13.7 ng/mL.
